In the supplement of paper PMC5998384:

Experiments:
HeLa Kyoto [1] = assay: thermal stability score vs G1/S (z-score of summed log2 fold changes over temperatures); higher = more thermally stable than in G1/S
HeLa Kyoto [2] = assay: melting temperature (median over replicates), in situ; higher = more thermally stable
HeLa Kyoto [3] = assay: solubility in G1/S (NP-40 vs SDS abundance) (log2 ratio); higher = more soluble; details: cell cycle stage: G1/S
HeLa Kyoto [4] = assay: solubility change mitosis vs G1/S (difference of NP-40 vs SDS log2 ratios) (log2 ratio difference); higher = more soluble in mitosis
[5] = cell cycle stage: early G1 (4.5 h after nocodazole release)
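Throughout, for melting temperature (median over replicates), in situ: HeLa Kyoto cells synchronized by double thymidine or nocodazole block, proteins quantified by TMT10plex mass spectrometry, three independent biological replicates.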
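Throughout, for solubility change mitosis vs G1/S (difference of NP-40 vs SDS log2 ratios): synchronized HeLa Kyoto cells (double thymidine block for G1/S, nocodazole release for mitosis), protein amounts in NP-40 versus SDS lysates quantified by mass spectrometry, three biological replicates.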
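Throughout, for solubility in G1/S (NP-40 vs SDS abundance): HeLa Kyoto cells arrested at G1/S by double thymidine block, proteins quantified by TMT10plex mass spectrometry in mild NP-40 versus SDS extracts, three biological replicates.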
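Throughout, for thermal stability score vs G1/S (z-score of summed log2 fold changes over temperatures): synchronized HeLa Kyoto cells, proteins quantified by TMT10plex mass spectrometry, three biological replicates, mitosis taken 0.5 h after nocodazole release, G1/S directly after double thymidine block.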

Substance | thermal stability score (HeLa Kyoto [1]; [5]) | thermal stability score (HeLa Kyoto [1]; cell cycle stage: mitosis) | melting temperature (HeLa Kyoto [2]; cell cycle stage: G1/S) | melting temperature (HeLa Kyoto [2]; cell cycle stage: mitosis) | solubility in G1/S (log2) (HeLa Kyoto [3]) | solubility change mitosis (log2) (HeLa Kyoto [4])
MAAPCEGQAFAVGVEKNWGAVVRSPEGTPQKIRQLIDEGIAPEEGGVDAKDTSATSQSVNGSPQAEQPSLESTSKEAFFSRVETFSSLKWAGKPFELSPLVCAKYGWVTVECDMLKCSSCQAFLCASLQPAFDFDRYKQRCAELKKALCTAHEKFCFWPDSPSPDRFGMLPLDEPAILVSEFLDRFQSLCHLDLQLPSLRPEDLKTMCLTEDKISLLLHLLEDELDHRTDERKTTIKLGSDIQVHVTACILSVCGWACSSSLESMQLSLITCSQCMRKVGLWGFQQIESSMTDLDASFGLTSSPIPGLEGRPERLPLVPESPRRMMTRSQDATFSPGSEQAEKSPGPIVSRTRSWDSSSPVDRPEPEAASPTTRTRPVTRSMGTGDTPGLEVPSSPLRKAKRARLCSSSSSDTSSRSFFDPTSQHRDWCPWVNITLGKESRENGGTEPDASAPAEPGWKAVLTILLAHKQSSQPAETDSMSLSEKSRKVFRIFRQWESLCSC [ZC3HC1] | 0.508 | 1.84 | 49.3 °C | 49.2 °C | 0.00532 | -0.163
MGKKGKKEKKGRGAEKTAAKMEKKVSKRSRKEEEDLEALIAHFQTLDAKRTQTVELPCPPPSPRLNASLSVHPEKDELILFGGEYFNGQKTFLYNELYVYNTRKDTWTKVDIPSPPPRRCAHQAVVVPQGGGQLWVFGGEFASPNGEQFYHYKDLWVLHLATKTWEQVKSTGGPSGRSGHRMVAWKRQLILFGGFHESTRDYIYYNDVYAFNLDTFTWSKLSPSGTGPTPRSGCQMSVTPQGGIVVYGGYSKQRVKKDVDKGTRHSDMFLLKPEDGREDKWVWTRMNPSGVKPTPRSGFSVAMAPNHQTLFFGGVCDEEEEESLSGEFFNDLYFYDATRNRWFEGQLKGPKSEKKKRRRGRKEEPEGGSRPACGGAGTQGPVQLVKEVVAEDGTVVTIKQVLTAPGSAGQPRSEDEDSLEEAGSPAPGPCPRSNAMLAVKHGVLYVYGGMFEAGDRQVTLSDLHCLDLHRMEAWKALVEMDPETQEWLEETDSEEDSEEVEGAEGGVDDEDSGEESGAED [KLHDC4] | -0.0688 | -0.148 | 49.7 °C | 48.9 °C | -0.239 | -0.00461
MLVVEVANGRSLVWGAEAVQALRERLGVGGRTVGALPRGPRQNSRLGLPLLLMPEEARLLAEIGAVTLVSAPRPDSRHHSLALTSFKRQQEESFQEQSALAAEARETRRQELLEKITEGQAAKKQKLEQASGASSSQEAGSSQAAKEDETSDGQASGEQEEAGPSSSQAGPSNGVAPLPRSALLVQLATARPRPVKARPLDWRVQSKDWPHAGRPAHELRYSIYRDLWERGFFLSAAGKFGGDFLVYPGDPLRFHAHYIAQCWAPEDTIPLQDLVAAGRLGTSVRKTLLLCSPQPDGKVVYTSLQWASLQ [TSEN34] | 1.68 | 2.17 | 49.3 °C | 49.8 °C | 0.191 | -0.159
MAGAEGAAGRQSELEPVVSLVDVLEEDEELENEACAVLGGSDSEKCSYSQGSVKRQALYACSTCTPEGEEPAGICLACSYECHGSHKLFELYTKRNFRCDCGNSKFKNLECKLLPDKAKVNSGNKYNDNFFGLYCICKRPYPDPEDEIPDEMIQCVVCEDWFHGRHLGAIPPESGDFQEMVCQACMKRCSFLWAYAAQLAVTKISTEDDGLVRNIDGIGDQEVIKPENGEHQDSTLKEDVPEQGKDDVREVKVEQNSEPCAGSSSESDLQTVFKNESLNAESKSGCKLQELKAKQLIKKDTATYWPLNWRSKLCTCQDCMKMYGDLDVLFLTDEYDTVLAYENKGKIAQATDRSDPLMDTLSSMNRVQQVELICEYNDLKTELKDYLKRFADEGTVVKREDIQQFFEEFQSKKRRRVDGMQYYCS [UBR7] | -0.155 | 0.512 | 49.9 °C | 50.7 °C | 0.163 | -0.0607
MMLRGNLKQVRIEKNPARLRALESAVGESEPAAAAAMALALAGEPAPPAPAPPEDHPDEEMGFTIDIKSFLKPGEKTYTQRCRLFVGNLPTDITEEDFKRLFERYGEPSEVFINRDRGFGFIRLESRTLAEIAKAELDGTILKSRPLRIRFATHGAALTVKNLSPVVSNELLEQAFSQFGPVEKAVVVVDDRGRATGKGFVEFAAKPPARKALERCGDGAFLLTTTPRPVIVEPMEQFDDEDGLPEKLMQKTQQYHKEREQPPRFAQPGTFEFEYASRWKALDEMEKQQREQVDRNIREAKEKLEAEMEAARHEHQLMLMRQDLMRRQEELRRLEELRNQELQKRKQIQLRHEEEHRRREEEMIRHREQEELRRQQEGFKPNYMENREQEMRMGDMGPRGAINMGDAFSPAPAGNQGPPPMMGMNMNNRATIPGPPMGPGPAMGPEGAANMGTPMMPDNGAVHNDRFPQGPPSQMGSPMGSRTGSETPQAPMSGVGPVSGGPGGFGRGSQGGNFEGPNKRRRY [PSPC1] | 1 | 1.79 | 49.1 °C | 48.7 °C | 0.205 | 0.177
RIF1 | 2.16 | 5.52 | 47.3 °C | 49.6 °C | -0.28 | 0.0253
MAAAAAQGGGGGEPRRTEGVGPGVPGEVEMVKGQPFDVGPRYTQLQYIGEGAYGMVSSAYDHVRKTRVAIKKISPFEHQTYCQRTLREIQILLRFRHENVIGIRDILRASTLEAMRDVYIVQDLMETDLYKLLKSQQLSNDHICYFLYQILRGLKYIHSANVLHRDLKPSNLLINTTCDLKICDFGLARIADPEHDHTGFLTEYVATRWYRAPEIMLNSKGYTKSIDIWSVGCILAEMLSNRPIFPGKHYLDQLNHILGILGSPSQEDLNCIINMKARNYLQSLPSKTKVAWAKLFPKSDSKALDLLDRMLTFNPNKRITVEEALAHPYLEQYYDPTDEPVAEEPFTFAMELDDLPKERLKELIFQETARFQPGVLEAP [MAPK3] | -0.246 | -0.247 | 51.3 °C | 50.2 °C | 0.391 | -0.228
MAVARVDAALPPGEGSVVNWSGQGLQKLGPNLPCEADIHTLILDKNQIIKLENLEKCKRLIQLSVANNRLVRMMGVAKLTLLRVLNLPHNSIGCVEGLKELVHLEWLNLAGNNLKAMEQINSCTALQHLDLSDNNISQIGDLSKLVSLKTLLLHGNIITSLRMAPAYLPRSLAILSLAENEIRDLNEISFLASLTELEQLSIMNNPCVMATPSIPGFDYRPYIVSWCLNLRVLDGYVISQKESLKAEWLYSQGKGRAYRPGQHIQLVQYLATVCPLTSTLGLQTAEDAKLEKILSKQRFHQRQLMNQSQNEELSPLVPVETRASLIPEHSSPVQDCQISQESEPVIQVNSWVGINSNDDQLFAVKNNFPASVHTTRYSRNDLHLEDIQTDEDKLNCSLLSSESTFMPVASGLSPLSPTVELRLQGINLGLEDDGVADESVKGLESQVLDKEEEQPLWAANENSVQMMRSEINTEVNEKAGLLPCPEPTIISAILKDDNHSLTFFPESTEQKQSDIKKPENTQPENKETISQATSEKLPMILTQRSVALGQDKVALQKLNDAATKLQACWRGFYARNYNPQAKDVRYEIRLRRMQEHIVCLTDEIRRLRKERDEERIKKFVQEEAFRFLWNQVRSLQVWQQTVDQRLSSWHTDVPPISSTLVPSKHPLFTQSQESSCDQNADWFIASDVAPQEKSLPEFPDSGFHSSLTEQVHSLQHSLDFEKSSTEGSESSIMGNSIDTVRYGKESDLGDVSEEHGEWNKESSNNEQDNSLLEQYLTSVQQLEDADERTNFDTETRDSKLHIACFPVQLDTLSDGASVDESHGISPPLQGEISQTQENSKLNAEVQGQQPECDSTFQLLHVGVTV [CEP97] | 0.503 | 1.24 | 49.6 °C | 49.9 °C | 0.0763 | -0.207
MSSCSRVALVTGANRGIGLAIARELCRQFSGDVVLTARDVARGQAAVQQLQAEGLSPRFHQLDIDDLQSIRALRDFLRKEYGGLNVLVNNAAVAFKSDDPMPFDIKAEMTLKTNFFATRNMCNELLPIMKPHGRVVNISSLQCLRAFENCSEDLQERFHSETLTEGDLVDLMKKFVEDTKNEVHEREGWPNSPYGVSKLGVTVLSRILARRLDEKRKADRILVNACCPGPVKTDMDGKDSIRTVEEGAETPVYLALLPPDATEPQGQLVHDKVVQNW [CBR3] | -0.991 | 0.085 | 51.4 °C | 52.4 °C | 0.562 | -0.0459
